Experiment: label from the status in PepcDB records

Sequence: MEFTTGLMSLDTALNEMLSRVTPLTAQETLPLVQCFGRILASDVVSPLDVPGFDNSAMDGYAVRLADIASGQPLPVAGKSFAGQPYHGEWPAGTCIRIMTGAPVPEGCEAVVMQEQTEQMDNGVRFTAEVRSGQNIRRRGEDISAGAVVFPAGTRLTTAELPVIASLGIAEVPVIRKVRVALFSTGDELQLPGQPLGDGQIYDTNRLAVHLMLEQLGCEVINLGIIRDDPHALRAAFIEADSQADVVISSGGVSVGEADYTKTILEELGEIAFWKLAIKPGKPFAFGKLSNSWFCGLPGNPVSATLTFYQLVQPLLAKLSGNTASGLPARQRVRTASRLKKTPGRLDFQRGVLQRNADGELEVTTTGHQGSHIFSSFSLGNCFIVLERDRGNVEVGEWVEVEPFNALFGGL
- protein production: not failed

Sequence: MAGLAARLVLLAGAAALASGSQGDREPVYRDCVLQCEEQNCSGGALNHFRSRQPIYMSLAGWTCRDDCKYECMWVTVGLYLQEGHKVPQFHGKWPFSRFLFFQEPASAVASFLNGLASLVMLCRYRTFVPASSPMYHTCVAFAWVSLNAWFWSTVFHTRDTDLTEKMDYFCASTVILHSIYLCCVRTVGLQHPAVVSAFRALLLLMLTVHVSYLSLIRFDYGYNLVANVAIGLVNVVWWLAWCLWNQRRLPHVRKCVVVVLLLQGLSLLELLDFPPLFWVLDAHAIWHISTIPVHVLFFSFLEDDSLYLLKESEDKFKLD
- protein production: failed

Sequence: MGSRDLISSLPDEILGKVLSLLPTKRAASTAVLSKRWNNLPALVDKLDINDAIGGPGGFPEFIDKTLALLTNSTTIKRTSLNNEFQYGESQVNTWIRSFLERGCLQLYLNAQSLYTIDTEFFTSNTLVELTITGGFSPDGLLPPGGVFFPKLKTLSLVLMTFVDSDMYELFISGCPLLEEFLLRNDEIEIPPVWNALVSSPSIKRLTIVHHFPNYREAHDGCWFRTPNLVYLDYSSYVPDWYEVDLGSLVEARLDLRSWERLRDEKAGGYGDCDSVYDDEEYPDDPILGDVTNLVTGLSNIKTLHLSPDSLEVSFPYLLLFQFEVHSSLQSLLIV
- protein production: failed

Sequence: MPTDDIVQLLKGQEEAWNRGDLDAYMQGYWQNEQLMLISNGKFRNGWDETLAAYKKNYPDKESLGELKFTIKEIKMLSNYAAMVVGRWDLKRLKDTPTGVFTLLVEKIDDRWVITMDHSSD
- protein production: not failed

Sequence: MSLSELSPCHVRSGRIMTVDGPIPSSALGHTLMHEHLQNDCRCWWNPPQEPERQYLAEAPISIEILSELRQDPFVNKHNIALDDLDLAIAEVKQFAAVGGRSIVDPTCRGIGRDPVKLRRISAETGVQVVMGAGYYLASSMPETAARLSADDIADEIVAEALEGTDGTDARIGLIGEIGVSSDFTAEEEKSLRGAARAQVRTGLPLMVHLPGWFRLAHRVLDLVEEEGADLRHTVLCHMNPSHMDPVYQATLAQRGAFLEFDMIGMDFFYADQGVQCPSDDEVARAILGLADHGYLDRILLSHDVFVKMMLTRYGGNGYAFVTKHFLPRLRRHGLDDAALETLMVTNPRRVFDASIEGHHHHHH
- protein production: not failed

Sequence: MTKHIPLQATSACAAVPPSAVLDSAHLGEIRGALGTIAADDRAPRRTLKARLQTLLAIAGPGLIVMVGDNDAGAFGTYTQAGQNYGTTLLWTLLLLIPVLYVNQEMVVRLGAVTGVGHARLIFARFGKFWGAFSVADLFLLNALTLVTEFIGISLALQYLGLSQFWGVIAAAVIITFAVSTGDFRRFERFALLLVAGSLLLIPVAVMVHPPLPQLAHDFFVPKMPAGAPLGEVMLLIIAIVGTTIAPWQLFFQQSYLIDKRITPRFIRYERWDLCVGIALVIIGAVAMIGFSAAAFAGRPEFGAYTDALGTAHGLEQAAGRLPAILFALALLDASIIGAAAVSLATAYAIGDVFAVAHSLHRKPSEAKGFYAVYAGLIAFAAALVVTPGMPLGLLTNAVQTLAGVLLPSATVFLLLLCNDKAVLGPWVNRRAGNLFTGAIVAVLVLLSVILTVSVLFPGVGETTILGILGGGVVGALLLSGAVALIARRGQGVRAEPPARSVVAPEEWRMPLLATLPPARLSAVSRTWLLVLRGYLVLAAGLVLYRIVELIAR
- protein production: failed

Sequence: MKKIAVFADVQNLYYTVRQAYGCHFNYAALWADISKRGEIVHAFAYAIDRGDSKQQQFQQILRNLGFTVRLKPYIQRSDGSAKGEWDVGITIDIMDFAPQVDEVVLASGDGDFDMLLDRVISKHGVEAVAYGVPGLTANSLIRAASRYVPIEGALL
- protein production: not failed
